From the supplement of paper PMC7877785
± gives the uncertainty stated by the source.

Assay: self-splicing fitness, log relative to wild type (ln ratio); higher = more splicing; Tetrahymena group I intron in knt gene, E. coli kanamycin selection, DiMSum; sequences stand for … in CUCUCU…GGAGGGAAAAGUUAUCAGGCAUGCACCUGGUAGCUAGUCUUUAAACCAAUAGAUUGCAUCGGUUUAAAAGGCAAGACCGUCAAAUUGCGGGAAAGGGGUCAACAGCCGUUCAGUACCAAGUCUCAGGGGAAACUUUGAGAUGGCCUUGCAAAGGGUAUGGUAAUAAGCUGACGGACAUGGUCCUAACCACGCAGCCAAGUCCUAAGUCAACAGAUCUUCUGUUGAUAUGGAUGCAGUUCACAGACUAAAUGUCGGUCGGGGAAGAUGUAUUCUUCUCAUAAGAUAUAGUCGGACCUCUCCUUAAUGGGAGCUAGCGGAUGAAGUGAUGCAACACUGGAGCCGCUGGGAACUAAUUUGUAUGCGAAAGUAUAUUGAUUAGUUUUGGAGUACUCGUGGUCG
Method in brief: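 Fitness was computed with DiMSum as the error-weighted combination of replicate fold changes, kanamycin versus none, each normalised to wild type. The library randomised all eight intron nucleotides of the P1ex region, with the intron placed in the knt kanamycin-resistance gene on pET-22b(+) in E. coli BL21(DE3). Six replicate transformations were grown overnight at 37°C or 30°C on LB agar with or without 25 μg/mL kanamycin, plus 100 μg/mL carbenicillin, 50 μM IPTG and 0.2% rhamnose. Pooled colonies were amplicon-sequenced on an Illumina HiSeq 2500.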

Sequence	self-splicing fitness (ln) (30 °C)	self-splicing fitness (ln) (37 °C)
UACGAGCAAUAUUACGGUAG	-2.97 ± 0.14	-2.35 ± 0.17
GACCAGCAAUAUUACGAUUU	0.0538 ± 0.046	0.446 ± 0.065
AUGGAGCAAUAUUACGAUGG	-2.22 ± 0.29	-2.47 ± 0.44
CUCGAGCAAUAUUACGGUAG	-2.62 ± 0.16	-0.386 ± 0.12
ACACAGCAAUAUUACGGAGG	-2.69 ± 0.076	-2.15 ± 0.098
GAACAGCAAUAUUACGGUGA	-1.08 ± 0.071	0.0381 ± 0.08
UUAUAGCAAUAUUACGGAUG	-2.85 ± 0.16	-1.09 ± 0.15
CAUUAGCAAUAUUACGAACU	-2.29 ± 0.31	-2.63 ± 0.36
ACGUAGCAAUAUUACGAUGG	-3.99 ± 0.35	-1.52 ± 0.29
CAUUAGCAAUAUUACGUCUG	-0.197 ± 0.062	0.00612 ± 0.072
UCGCAGCAAUAUUACGAGCA	-1.25 ± 0.23	-0.449 ± 0.27
AAUCAGCAAUAUUACGAGGG	-1.68 ± 0.088	-0.681 ± 0.096
AAAAAGCAAUAUUACGACGU	0.102 ± 0.054	0.768 ± 0.067
CAAAAGCAAUAUUACGUAGA	-1.88 ± 0.078	-1.97 ± 0.12
UGACAGCAAUAUUACGCCGA	-1.44 ± 0.17	-0.0813 ± 0.17
UCAAAGCAAUAUUACGGAUA	-3.12 ± 0.18	-1.94 ± 0.14
CCAGAGCAAUAUUACGGUUU	-4.44 ± 0.39	-3.07 ± 0.32
GUUUAGCAAUAUUACGUUGG	-3.81 ± 0.37	-1.45 ± 0.23
GGACAGCAAUAUUACGUGUA	-0.376 ± 0.078	-0.304 ± 0.085
AUUAAGCAAUAUUACGCAAA	-1.78 ± 0.23	-1.32 ± 0.18
CUCGAGCAAUAUUACGUAUA	–	-2.29 ± 0.31
AGGAAGCAAUAUUACGGAAC	-3.47 ± 0.26	-2.96 ± 0.31
CGGAAGCAAUAUUACGUGAU	-3.44 ± 0.12	-1.96 ± 0.12
CUCAAGCAAUAUUACGCCGG	-2.92 ± 0.38	-1.53 ± 0.31
GUCUAGCAAUAUUACGAAGA	-3.16 ± 0.24	-2.24 ± 0.2

Sequence	self-splicing fitness (ln) (30 °C)	self-splicing fitness (ln) (37 °C)
AGUAAGCAAUAUUACGGUGG	-3.68 ± 0.2	-1.66 ± 0.16
CUCGAGCAAUAUUACGACAA	-2.69 ± 0.19	-2.65 ± 0.19
AUCGAGCAAUAUUACGCCCA	-1.77 ± 0.24	-1.37 ± 0.3
GUCCAGCAAUAUUACGACGC	-0.776 ± 0.094	0.435 ± 0.12
GAGGAGCAAUAUUACGUGGC	-3.34 ± 0.24	–
AUCCAGCAAUAUUACGCCUG	-3.86 ± 0.26	-2.09 ± 0.16
CGAUAGCAAUAUUACGACAA	-3.4 ± 0.34	-2.35 ± 0.27
AUCCAGCAAUAUUACGACGG	-4 ± 0.3	-1.8 ± 0.19
GAUCAGCAAUAUUACGCGCA	0.225 ± 0.092	-0.0411 ± 0.1
AUUAAGCAAUAUUACGCCUA	-0.154 ± 0.086	0.195 ± 0.11
GCUCAGCAAUAUUACGGAUA	-1.34 ± 0.12	-0.254 ± 0.1
CGAAAGCAAUAUUACGAUAA	-2.44 ± 0.17	-0.695 ± 0.12
GAUGAGCAAUAUUACGGUGA	-2.21 ± 0.28	-1.76 ± 0.27
CCCGAGCAAUAUUACGUUGA	-4.57 ± 0.32	-2.78 ± 0.2
CACAAGCAAUAUUACGGGGU	-3.61 ± 0.11	-3.18 ± 0.13
CGAGAGCAAUAUUACGUGGA	-3.7 ± 0.26	-2.89 ± 0.23
AGUGAGCAAUAUUACGAAGC	-4.89 ± 0.46	-1.55 ± 0.33
AAGGAGCAAUAUUACGUUCG	-1.78 ± 0.11	-0.665 ± 0.2
CCCGAGCAAUAUUACGCGUG	-3.9 ± 0.2	-3.2 ± 0.29
GCAGAGCAAUAUUACGCAUA	-3.11 ± 0.22	-2.89 ± 0.24
UGUAAGCAAUAUUACGGAUA	-1.38 ± 0.11	-1.27 ± 0.12
UGUAAGCAAUAUUACGGAUC	-1.45 ± 0.18	-0.457 ± 0.36
CCAAAGCAAUAUUACGUUAC	-3.75 ± 0.22	-3.75 ± 0.36
GUUCAGCAAUAUUACGGCUC	0.0792 ± 0.12	-0.018 ± 0.12
AAGUAGCAAUAUUACGGCAC	-1.17 ± 0.17	-0.552 ± 0.17

Sequence	self-splicing fitness (ln) (30 °C)	self-splicing fitness (ln) (37 °C)
GGGCAGCAAUAUUACGAGUC	-1.84 ± 0.21	-1.81 ± 0.28
CGUCAGCAAUAUUACGUAAA	-1.97 ± 0.06	-1.21 ± 0.097
GGCAAGCAAUAUUACGUUGC	-3.67 ± 0.37	-2.42 ± 0.39
UUGUAGCAAUAUUACGUGCG	-1.77 ± 0.15	0.0928 ± 0.14
AUGAAGCAAUAUUACGACAU	0.292 ± 0.012	0.49 ± 0.032
ACGCAGCAAUAUUACGCUAA	-1.79 ± 0.08	-0.352 ± 0.081
UCAUAGCAAUAUUACGAUAU	-3.76 ± 0.32	-2.4 ± 0.29
CCAUAGCAAUAUUACGACUA	–	-1.71 ± 0.37
AAUCAGCAAUAUUACGCCGG	-1.15 ± 0.086	-0.932 ± 0.099
UCUAAGCAAUAUUACGUUAC	-2.8 ± 0.18	-2.09 ± 0.26
ACACAGCAAUAUUACGCACG	-0.797 ± 0.093	-0.607 ± 0.12
CAGCAGCAAUAUUACGCUUG	-2.88 ± 0.12	-2.61 ± 0.19
CACAAGCAAUAUUACGCAUA	-3.87 ± 0.19	-1.12 ± 0.11
CAUAAGCAAUAUUACGCAGU	-3.05 ± 0.23	-0.865 ± 0.13
AGCAAGCAAUAUUACGGCCA	-0.0326 ± 0.088	-0.0437 ± 0.12
UGCUAGCAAUAUUACGCAGC	-4.35 ± 0.36	-2.1 ± 0.28
CCUCAGCAAUAUUACGAGGC	–	-2.19 ± 0.31
UCGAAGCAAUAUUACGCGUA	-1.46 ± 0.15	-1.19 ± 0.13
GGAAAGCAAUAUUACGACGU	-0.135 ± 0.097	0.068 ± 0.1
GAUGAGCAAUAUUACGUAGC	-3.69 ± 0.34	-1.74 ± 0.25
GCGAAGCAAUAUUACGGAUC	-0.303 ± 0.071	-0.659 ± 0.094
GUCCAGCAAUAUUACGACGA	-2.69 ± 0.12	-0.712 ± 0.091
CUGCAGCAAUAUUACGAAAC	–	-1.87 ± 0.37
UGCCAGCAAUAUUACGAUUU	-4.1 ± 0.23	-1.54 ± 0.14
GGGUAGCAAUAUUACGUUCC	–	-2.09 ± 0.46

Sequence	self-splicing fitness (ln) (30 °C)	self-splicing fitness (ln) (37 °C)
AAGGAGCAAUAUUACGAUCU	-0.603 ± 0.085	-0.731 ± 0.11
UAAGAGCAAUAUUACGAUUC	–	-0.537 ± 0.43
AUUUAGCAAUAUUACGUCGU	-1.7 ± 0.11	-1.33 ± 0.1
CGAAAGCAAUAUUACGGUAC	-2.51 ± 0.29	–
ACGGAGCAAUAUUACGUUGC	–	-3.12 ± 0.4
GGUGAGCAAUAUUACGUAGG	-3.15 ± 0.27	-2.07 ± 0.32
CUCCAGCAAUAUUACGCAGG	-3.95 ± 0.21	-2.83 ± 0.27
UAUAAGCAAUAUUACGAGCU	-3.44 ± 0.34	-1.47 ± 0.21
AACCAGCAAUAUUACGUAUA	-1.4 ± 0.072	-0.853 ± 0.088
GGGGAGCAAUAUUACGACUU	-1.2 ± 0.16	0.242 ± 0.22
AUUCAGCAAUAUUACGAACU	0.334 ± 0.13	0.543 ± 0.14
CGAGAGCAAUAUUACGGUAA	-1.51 ± 0.25	-2.55 ± 0.28
AUGUAGCAAUAUUACGAAGU	-3.07 ± 0.23	-0.943 ± 0.18
UCCGAGCAAUAUUACGAACG	-1.82 ± 0.37	-1.06 ± 0.22
UCCUAGCAAUAUUACGCUUU	–	-1.85 ± 0.29
UGCAAGCAAUAUUACGGCAU	-3.05 ± 0.29	-2.1 ± 0.19
CACAAGCAAUAUUACGAGCC	-4.37 ± 0.42	-2.17 ± 0.4
CCCGAGCAAUAUUACGCAUU	-3.69 ± 0.33	-2.22 ± 0.3
CAACAGCAAUAUUACGUGUU	-3.54 ± 0.11	-3.03 ± 0.15
AGGGAGCAAUAUUACGCGAU	-2.89 ± 0.29	-1.84 ± 0.47
AAUGAGCAAUAUUACGCCCA	-2.56 ± 0.3	-1.75 ± 0.32
GUAUAGCAAUAUUACGGAUA	-1.43 ± 0.27	-1.55 ± 0.28
AAGUAGCAAUAUUACGGAGU	-2.54 ± 0.2	-1.9 ± 0.22
